# Source: IntAct's records for PubMed 23468591
# B1: IkB-like protein (African swine fever virus (isolate Tick/Malawi/Lil 20-1/1983)), O36972 (parent)
# chain: MDTIGLFSVEAEHLFVEWVKKCIKKGDLTLFETLFNADPWIVNRCNKNKITVFMLICIYGRLDFLRFLFKQESYPGEIVNHYRRDKDGNSAWHYLAEKNNHLLLEEVLDYFGKNGIRVCFPNFNGVTPIMKAAMRGRTLSVLSLLKYGANPNRKDYLKGFTTWDWAVFTGHADLVKTLNKGYQKPLFMHFPLYKLDVFHRRFKKKPKIIITGCEDNVYEKLPEQNSNFLCVKKLNKYGK
# Variants of: B1
# Conditions: with PPP3CA
row,Variant,effect of a mutation on the interaction
1,F228A;L229A;V231A;K232A,disrupting interaction strength
